US20120213763A1 (COUNCIL OF SCIENTIFIC AND INDUSTRIAL RESEARCH, published 2012)
Where “and” joins values, the source holds several entries; their conditions need not be identical. Equal values may be shown once.

Experiments:
[1] = molecular target: T1, PEGylated SK S105C (SEQ ID NO 33)
T1 chain: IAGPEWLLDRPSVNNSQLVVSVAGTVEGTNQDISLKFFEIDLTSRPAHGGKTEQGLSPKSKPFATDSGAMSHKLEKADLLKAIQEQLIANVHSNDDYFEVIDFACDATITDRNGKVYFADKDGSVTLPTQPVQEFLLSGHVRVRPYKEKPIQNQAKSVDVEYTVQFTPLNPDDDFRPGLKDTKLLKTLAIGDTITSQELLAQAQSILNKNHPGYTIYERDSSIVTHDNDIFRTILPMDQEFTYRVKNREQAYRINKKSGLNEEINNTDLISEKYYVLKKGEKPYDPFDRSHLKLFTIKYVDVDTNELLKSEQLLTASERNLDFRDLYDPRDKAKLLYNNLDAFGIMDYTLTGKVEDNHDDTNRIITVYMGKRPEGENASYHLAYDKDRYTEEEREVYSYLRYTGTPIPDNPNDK

[2] = molecular target: T2, PEGylated SK N255C (SEQ ID NO 46)
T2 chain: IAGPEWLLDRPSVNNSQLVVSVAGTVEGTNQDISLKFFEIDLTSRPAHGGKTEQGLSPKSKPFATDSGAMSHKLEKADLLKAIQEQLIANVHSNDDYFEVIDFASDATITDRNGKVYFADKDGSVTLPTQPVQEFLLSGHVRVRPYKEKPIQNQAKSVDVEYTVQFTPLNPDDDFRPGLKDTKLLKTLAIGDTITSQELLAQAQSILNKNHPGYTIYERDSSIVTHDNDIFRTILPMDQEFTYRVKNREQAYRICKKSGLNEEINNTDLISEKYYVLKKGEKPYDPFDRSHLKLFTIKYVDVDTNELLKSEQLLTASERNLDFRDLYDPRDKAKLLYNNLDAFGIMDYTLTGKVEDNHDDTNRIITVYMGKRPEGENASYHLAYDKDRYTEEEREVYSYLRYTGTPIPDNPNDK

[3] = molecular target: T3, PEGylated SK Lys 257 Cys (SEQ ID NO 48)
T3 chain: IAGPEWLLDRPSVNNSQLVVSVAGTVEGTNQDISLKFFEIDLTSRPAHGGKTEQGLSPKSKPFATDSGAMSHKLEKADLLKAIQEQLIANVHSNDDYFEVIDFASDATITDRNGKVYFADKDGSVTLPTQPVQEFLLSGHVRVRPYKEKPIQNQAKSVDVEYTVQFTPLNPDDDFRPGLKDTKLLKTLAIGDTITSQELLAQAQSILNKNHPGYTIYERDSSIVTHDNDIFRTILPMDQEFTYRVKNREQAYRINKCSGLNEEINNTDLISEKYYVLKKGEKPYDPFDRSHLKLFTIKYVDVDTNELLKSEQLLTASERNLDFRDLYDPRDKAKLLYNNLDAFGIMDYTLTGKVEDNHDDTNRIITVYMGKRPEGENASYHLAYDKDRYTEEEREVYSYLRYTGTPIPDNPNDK

[4] = molecular target: T4, PEGylated SK D173C (SEQ ID NO 39)
T4 chain: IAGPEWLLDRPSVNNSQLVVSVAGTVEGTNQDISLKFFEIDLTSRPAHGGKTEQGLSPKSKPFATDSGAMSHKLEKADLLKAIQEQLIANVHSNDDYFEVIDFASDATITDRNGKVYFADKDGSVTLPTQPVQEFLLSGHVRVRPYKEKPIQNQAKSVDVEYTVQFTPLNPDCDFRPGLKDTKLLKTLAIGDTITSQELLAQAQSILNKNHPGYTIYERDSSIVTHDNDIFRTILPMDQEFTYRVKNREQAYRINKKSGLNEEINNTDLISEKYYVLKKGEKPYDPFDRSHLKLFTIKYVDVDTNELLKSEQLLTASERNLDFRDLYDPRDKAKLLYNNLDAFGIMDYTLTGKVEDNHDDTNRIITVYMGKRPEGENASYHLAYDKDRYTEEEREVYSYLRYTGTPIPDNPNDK

[5] = molecular target: PEG Variants of SEQ ID NO 23 (PEGylated Cysteine variants of fibrin domain fusion form of SK)
[6] = molecular target: T5, PEGylated SK Ser 258 Cys (SEQ ID NO 49)
T5 chain: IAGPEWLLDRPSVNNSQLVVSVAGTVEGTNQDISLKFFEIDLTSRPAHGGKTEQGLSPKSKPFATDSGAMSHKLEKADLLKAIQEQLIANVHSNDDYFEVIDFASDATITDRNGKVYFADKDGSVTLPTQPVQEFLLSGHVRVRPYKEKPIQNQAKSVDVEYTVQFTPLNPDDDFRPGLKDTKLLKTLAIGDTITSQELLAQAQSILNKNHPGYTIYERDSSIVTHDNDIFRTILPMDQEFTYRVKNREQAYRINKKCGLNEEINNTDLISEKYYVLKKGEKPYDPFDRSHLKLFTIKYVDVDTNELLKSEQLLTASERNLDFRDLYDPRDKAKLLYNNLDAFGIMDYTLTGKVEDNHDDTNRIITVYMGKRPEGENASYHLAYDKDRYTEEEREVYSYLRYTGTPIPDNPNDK

[7] = molecular target: T6, PEGylated SK D102C (SEQ ID NO 32)
T6 chain: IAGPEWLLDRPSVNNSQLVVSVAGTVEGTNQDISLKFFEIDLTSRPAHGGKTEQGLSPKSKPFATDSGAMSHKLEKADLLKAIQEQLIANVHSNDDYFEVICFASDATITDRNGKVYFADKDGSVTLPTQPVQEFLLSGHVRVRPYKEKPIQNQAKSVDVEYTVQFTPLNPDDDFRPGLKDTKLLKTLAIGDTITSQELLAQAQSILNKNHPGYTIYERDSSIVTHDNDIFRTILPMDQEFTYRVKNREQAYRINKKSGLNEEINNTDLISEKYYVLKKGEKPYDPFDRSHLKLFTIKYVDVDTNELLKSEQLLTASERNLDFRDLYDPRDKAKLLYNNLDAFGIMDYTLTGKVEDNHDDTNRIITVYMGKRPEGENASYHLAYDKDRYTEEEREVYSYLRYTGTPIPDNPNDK

B1: human plasminogen (HPG) (protein)
chain: KVYLSECKTGNGKNYRGTMSKTKNGITCQKWSSTSPHRPRFSPATHPSEGLEENYCRNPDNDPQGPWCYTTDPEKRYDYCDILECEEECMHCSGENYDGKISKTMSGLECQAWDSQSPHAHGYIPSKFPNKNLKKNYCRNPDRELRPWCFTTDPNKRWELCDIPRCTTPPPSSGPTYQCLKGTGENYRGNVAVTVSGHTCQHWSAQTPHTHNRTPENFPCKNLDENYCRNPDGKRAPWCHTTNSQVRWEYCKIPSCDSSPVSTEQLAPTAPPELTPVVQDCYHGDGQSYRGTSSTTTTGKKCQSWSSMTPHRHQKTPENYPNAGLTMNYCRNPDADKGPWCFTTDPSVRWEYCNLKKCSGTEASVVAPPPVVLLPDVETPSEEDCMFGNGKGYRGKRATTVTGTPCQDWAAQEPHRHSIFTPETNPRAGLEKNYCRNPDGDVGGPWCYTTNPRKLYDYCDVPQCAAPSFDCGKPQVEPKKCPGRVVGGCVAHPHSWPWQVSLRTRFGMHFCGGTLISPEWVLTAAHCLEKSPRPSSYKVILGAHQEVNLEPHVQEIEVSRLFLEPTRKDIALLKLSSPAVITDKVIPACLPSPNYVVADRTECFITGWGETQGTFGAGLLKEAQLPVIENKVCNRYEFLNGRVQSTELCAGHLAGGTDSCQGDSGGPLVCFEKDKYILQGVTSWGLGCARPNKPGVYVRVSRFVTWIEGVMRNN
**Q.** Which Km [1] does the source give for B1 here?
**A.** 0.5 µM

**Q.** What about the Km [2] of the same protein?
**A.** 0.4 µM

**Q.** And the Km [3]?
**A.** 0.4 µM

**Q.** What about the Km [4] of the same protein?
**A.** 0.4 µM

**Q.** And the Km [5]?
**A.** 0.24 µM and 0.63 µM

**Q.** And the Km [6]?
**A.** 0.5 µM

**Q.** And the Km [7]?
**A.** 0.5 µM
